Blank lines part the entries; values can stand above or below the binder they belong to.
Assays:
Assay in all cases: co-expression of both H chains with the common L chain; cation exchange chromatography (IEX), ratio of peak areas of A-Homo, BiAb and B-Homo; IgG4-type
[1] = molecular target: humanized B26 antibody H chain, IgG4-type w1 (D399K, E357K)
[2] = molecular target: humanized B26 antibody H chain, IgG4-type w2 (D399K, E356K)
[3] = molecular target: humanized B26 antibody H chain, IgG4-type w3C2 (E357K, E356K, Y349C)
[4] = molecular target: humanized B26 antibody H chain, IgG4-type s1C (D399K, S354C)
[5] = molecular target: humanized B26 antibody H chain, IgG4-type w3 (E357K, E356K)
[6] = molecular target: humanized B26 antibody H chain, IgG4-type w3C (E357K, E356K, S354C)

B1: humanized A69 antibody H chain, IgG4-type w1 (R409D, K370E) (other)
heavy: EVQLVQSGAEVVKPGSSVKVSCTASGYTFSDYYMHWVRQAPGEGLEWMGYINPSSGYTKYNRKFRDRVTITADKSTSTAYMELSSLRSEDTAVYYCARGGLGYYLDYWGEGTTVTVSSASTKGPSVFPLAPCSRSTSESTAALGCLVKDYFPEPVTVSWNSGALTSGVHTFPAVLQSSGLYSLSSVVTVPSSSLGTKTYTCNVDHKPSNTKVDKRVESKYGPPCPPCPAPEFLGGPSVFLFPPKPKDTLMISRTPEVTCVVVDVSQEDPEVQFNWYVDGVEVHNAKTKPREEQFNSTYRVVSVLTVLHQDWLNGKEYKCKVSNKGLPSSIEKTISKAKGQPREPQVYTLPPSQEEMTKNQVSLTCLVEGFYPSDIAVEWESNGQPENNYKTTPPVLDSDGSFFLYSDLTVDKSRWQEGNVFSCSVMHEALHNHYTQKSLSLSLGK
BiAb formation efficiency (%) [1]: ≥ 90%

B2: humanized A69 antibody H chain, IgG4-type w2 (R409D, K439E) (other)
heavy: EVQLVQSGAEVVKPGSSVKVSCTASGYTFSDYYMHWVRQAPGEGLEWMGYINPSSGYTKYNRKFRDRVTITADKSTSTAYMELSSLRSEDTAVYYCARGGLGYYLDYWGEGTTVTVSSASTKGPSVFPLAPCSRSTSESTAALGCLVKDYFPEPVTVSWNSGALTSGVHTFPAVLQSSGLYSLSSVVTVPSSSLGTKTYTCNVDHKPSNTKVDKRVESKYGPPCPPCPAPEFLGGPSVFLFPPKPKDTLMISRTPEVTCVVVDVSQEDPEVQFNWYVDGVEVHNAKTKPREEQFNSTYRVVSVLTVLHQDWLNGKEYKCKVSNKGLPSSIEKTISKAKGQPREPQVYTLPPSQEEMTKNQVSLTCLVKGFYPSDIAVEWESNGQPENNYKTTPPVLDSDGSFFLYSDLTVDKSRWQEGNVFSCSVMHEALHNHYTQESLSLSLGK
BiAb formation efficiency (%) [2]: ≥ 90%

B4: humanized A69 antibody H chain, IgG4-type s1C (R409D, Y349C) (other)
heavy: EVQLVQSGAEVVKPGSSVKVSCTASGYTFSDYYMHWVRQAPGEGLEWMGYINPSSGYTKYNRKFRDRVTITADKSTSTAYMELSSLRSEDTAVYYCARGGLGYYLDYWGEGTTVTVSSASTKGPSVFPLAPCSRSTSESTAALGCLVKDYFPEPVTVSWNSGALTSGVHTFPAVLQSSGLYSLSSVVTVPSSSLGTKTYTCNVDHKPSNTKVDKRVESKYGPPCPPCPAPEFLGGPSVFLFPPKPKDTLMISRTPEVTCVVVDVSQEDPEVQFNWYVDGVEVHNAKTKPREEQFNSTYRVVSVLTVLHQDWLNGKEYKCKVSNKGLPSSIEKTISKAKGQPREPQVCTLPPSQEEMTKNQVSLTCLVKGFYPSDIAVEWESNGQPENNYKTTPPVLDSDGSFFLYSDLTVDKSRWQEGNVFSCSVMHEALHNHYTQKSLSLSLGK
BiAb formation efficiency (%) [4]: ≥ 90%

Second part, the binder after the results:

BiAb formation efficiency (%) [3]: ≥ 90%
B3: humanized A69 antibody H chain, IgG4-type w3C2 (K370E, K439E, S354C) (other)
heavy: EVQLVQSGAEVVKPGSSVKVSCTASGYTFSDYYMHWVRQAPGEGLEWMGYINPSSGYTKYNRKFRDRVTITADKSTSTAYMELSSLRSEDTAVYYCARGGLGYYLDYWGEGTTVTVSSASTKGPSVFPLAPCSRSTSESTAALGCLVKDYFPEPVTVSWNSGALTSGVHTFPAVLQSSGLYSLSSVVTVPSSSLGTKTYTCNVDHKPSNTKVDKRVESKYGPPCPPCPAPEFLGGPSVFLFPPKPKDTLMISRTPEVTCVVVDVSQEDPEVQFNWYVDGVEVHNAKTKPREEQFNSTYRVVSVLTVLHQDWLNGKEYKCKVSNKGLPSSIEKTISKAKGQPREPQVYTLPPCQEEMTKNQVSLTCLVEGFYPSDIAVEWESNGQPENNYKTTPPVLDSDGSFFLYSRLTVDKSRWQEGNVFSCSVMHEALHNHYTQESLSLSLGK

BiAb formation efficiency (%) [5]: ≥ 90%
B5: humanized A69 antibody H chain, IgG4-type w3 (K370E, K439E) (other)
heavy: EVQLVQSGAEVVKPGSSVKVSCTASGYTFSDYYMHWVRQAPGEGLEWMGYINPSSGYTKYNRKFRDRVTITADKSTSTAYMELSSLRSEDTAVYYCARGGLGYYLDYWGEGTTVTVSSASTKGPSVFPLAPCSRSTSESTAALGCLVKDYFPEPVTVSWNSGALTSGVHTFPAVLQSSGLYSLSSVVTVPSSSLGTKTYTCNVDHKPSNTKVDKRVESKYGPPCPPCPAPEFLGGPSVFLFPPKPKDTLMISRTPEVTCVVVDVSQEDPEVQFNWYVDGVEVHNAKTKPREEQFNSTYRVVSVLTVLHQDWLNGKEYKCKVSNKGLPSSIEKTISKAKGQPREPQVYTLPPSQEEMTKNQVSLTCLVEGFYPSDIAVEWESNGQPENNYKTTPPVLDSDGSFFLYSRLTVDKSRWQEGNVFSCSVMHEALHNHYTQESLSLSLGK

BiAb formation efficiency (%) [6]: ≥ 90%
B6: humanized A69 antibody H chain, IgG4-type w3C (K370E, K439E, Y349C) (other)
heavy: EVQLVQSGAEVVKPGSSVKVSCTASGYTFSDYYMHWVRQAPGEGLEWMGYINPSSGYTKYNRKFRDRVTITADKSTSTAYMELSSLRSEDTAVYYCARGGLGYYLDYWGEGTTVTVSSASTKGPSVFPLAPCSRSTSESTAALGCLVKDYFPEPVTVSWNSGALTSGVHTFPAVLQSSGLYSLSSVVTVPSSSLGTKTYTCNVDHKPSNTKVDKRVESKYGPPCPPCPAPEFLGGPSVFLFPPKPKDTLMISRTPEVTCVVVDVSQEDPEVQFNWYVDGVEVHNAKTKPREEQFNSTYRVVSVLTVLHQDWLNGKEYKCKVSNKGLPSSIEKTISKAKGQPREPQVCTLPPSQEEMTKNQVSLTCLVEGFYPSDIAVEWESNGQPENNYKTTPPVLDSDGSFFLYSRLTVDKSRWQEGNVFSCSVMHEALHNHYTQESLSLSLGK

From patent publication US20260035728A1 (Chugai, published 2026)
